Assay results: US20240417469A1 (CONCEPT TO MEDICINE BIOTECH, published 2024)
Where a chain is given by its changes, count along the chain named.

B1: Hu153A6B1-5 (antibody, V domains shown)
VH: EVQLQESGPGLVKPSETLSLTCTVSGFSISSYNIHWVRQPPGKGLEWMGRIRYNGDTSYNSALKSRLTISRDTSKNQVSLKLSSVTAADTAVYYCTRGPYGGSREPLFDYWGQGTMVTVSS
VL: DIQMTQSPSSLSASVGDRVTITCKTSQNINKYLNWYQQKPGKAPKLLIYTTNNLQTGVPSRFSGSGSGTDFTLTISSLQPEDFATYYCLQHGSGYTFGQGTKLEIK
notes: humanized mAb
B2: Hu155A9B1-12 (antibody, V domains shown)
VH: B1 VH with I29L, S30T, I34V, I51V, V78A, R104S
VL: B1 VL with T25A, Y36F, K45R, V58I, G92N
notes: humanized mAb
B3: Hu155A9B1-14 (antibody, V domains shown)
VH: B1 VH with F27G, I34V, M48I, I51V, L67V, V78F, T96A, R104S
VL: B1 VL with T25A, Y36F, K45R, V58I, Y87F, G92N
notes: humanized mAb
B4: Hu155A9B1-4 (antibody, V domains shown)
VH: B1 VH with F27G, I34V, I51V, V78F, R104S
VL: B1 VL with T25A, K45R, G92N
notes: humanized mAb
B5: Hu155A9B1-8 (antibody, V domains shown)
VH: B1 VH with F27G, I34V, M48I, I51V, L67V, V78F, T96A, R104S
VL: B1 VL with T25A, Y36F, K45R, V58I, G92N
notes: humanized mAb; also called 155z8
B6: Hu155A9B1-1 (antibody, V domains shown)
VH: B1 VH with F27G, I34V, V37I, M48I, I51V, L67V, R71V, V78F, T96A, R104S
VL: B1 VL with T25A, K45R, G92N
notes: humanized mAb
B7: Hu153A6B1-13 (antibody, V domains shown)
VH: B1 VH with F27G, V37I, M48I, L67V, R71V, V78F, T96A
VL: B1 VL with Y36F, V58I, Y87F
notes: humanized mAb
B8: Hu153A6B1-10 (antibody, V domains shown)
VH: B1 VH with F27G, V78F
VL: B1 VL with Y36F, V58I
notes: humanized mAb
B9: Hu153A6B1-7 (antibody, V domains shown)
VH: B1 VH with F27G, V37I, M48I, L67V, R71V, V78F, T96A
VL: B1 VL with Y36F, V58I
notes: humanized mAb
B10: Hu155A9B1-7 (antibody, V domains shown)
VH: B1 VH with F27G, I34V, V37I, M48I, I51V, L67V, R71V, V78F, T96A, R104S
VL: B1 VL with T25A, Y36F, K45R, V58I, G92N
notes: humanized mAb
B11: Hu155A9B1-10 (antibody, V domains shown)
VH: B1 VH with F27G, I34V, I51V, V78F, R104S
VL: B1 VL with T25A, Y36F, K45R, V58I, G92N
notes: humanized mAb
B12: Hu153A6B1-6 (antibody, V domains shown)
VH: B1 VH with I29L, S30T
VL: B1 VL
notes: humanized mAb
B13: Hu153A6B1-8 (antibody, V domains shown)
VH: B1 VH with F27G, M48I, L67V, V78F, T96A
VL: B1 VL with Y36F, V58I
notes: humanized mAb
B14: Hu153A6B1-17 (antibody, V domains shown)
VH: B1 VH
VL: B1 VL with Y36F, V58I, Y87F
notes: humanized mAb
B15: Hu153A6B1-14 (antibody, V domains shown)
VH: B1 VH with F27G, M48I, L67V, V78F, T96A
VL: B1 VL with Y36F, V58I, Y87F
notes: humanized mAb
B16: Hu155A9B1-5 (antibody, V domains shown)
VH: B1 VH with I34V, I51V, V78A, R104S
VL: B1 VL with T25A, K45R, G92N
notes: humanized mAb; also called 155z5
B17: Hu153A6B1-15 (antibody, V domains shown)
VH: B1 VH with F27G, V78F, T96A
VL: B1 VL with Y36F, V58I, Y87F
notes: humanized mAb
B18: Hu153A6B1-18 (antibody, V domains shown)
VH: B1 VH with I29L, S30T
VL: B1 VL with Y36F, V58I, Y87F
notes: humanized mAb
B19: Hu153A6B1-11 (antibody, V domains shown)
VH: B1 VH
VL: B1 VL with Y36F, V58I
notes: humanized mAb
B20: Hu155A9B1-9 (antibody, V domains shown)
VH: B1 VH with F27G, I34V, I51V, V78F, T96A, R104S
VL: B1 VL with T25A, Y36F, K45R, V58I, G92N
notes: humanized mAb
B21: Hu155A9B1-13 (antibody, V domains shown)
VH: B1 VH with F27G, I34V, V37I, M48I, I51V, L67V, R71V, V78F, T96A, R104S
VL: B1 VL with T25A, Y36F, K45R, V58I, Y87F, G92N
notes: humanized mAb
B22: Hu155A9B1-2 (antibody, V domains shown)
VH: B1 VH with F27G, I34V, M48I, I51V, L67V, V78F, T96A, R104S
VL: B1 VL with T25A, K45R, G92N
notes: humanized mAb
B23: Hu155A9B1-11 (antibody, V domains shown)
VH: B1 VH with I34V, I51V, V78A, R104S
VL: B1 VL with T25A, Y36F, K45R, V58I, G92N
notes: humanized mAb
B24: Hu153A6B1-16 (antibody, V domains shown)
VH: B1 VH with F27G, V78F
VL: B1 VL with Y36F, V58I, Y87F
notes: humanized mAb
B25: Hu153A6B1-12 (antibody, V domains shown)
VH: B1 VH with I29L, S30T
VL: B1 VL with Y36F, V58I
notes: humanized mAb

Molecular target: T1, human CD3 on cells (human PBMC; Jurkat TCR/CD3 NFAT reporter cells) (human, UniProt P07766 23-207; P04234 22-171; P09693 23-182)
T1 sequence (P07766 23-207, chain 1 of 3): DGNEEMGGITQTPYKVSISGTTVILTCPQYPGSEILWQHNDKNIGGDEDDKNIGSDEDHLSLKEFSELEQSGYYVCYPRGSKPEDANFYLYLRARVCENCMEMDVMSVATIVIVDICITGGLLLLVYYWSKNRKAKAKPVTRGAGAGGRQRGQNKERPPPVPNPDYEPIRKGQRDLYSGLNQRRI
T1 sequence (P04234 22-171, chain 2 of 3): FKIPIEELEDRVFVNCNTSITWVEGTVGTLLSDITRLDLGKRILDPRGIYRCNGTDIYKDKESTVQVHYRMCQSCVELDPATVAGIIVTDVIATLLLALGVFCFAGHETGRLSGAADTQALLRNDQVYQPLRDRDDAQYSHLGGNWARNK
T1 sequence (P09693 23-182, chain 3 of 3): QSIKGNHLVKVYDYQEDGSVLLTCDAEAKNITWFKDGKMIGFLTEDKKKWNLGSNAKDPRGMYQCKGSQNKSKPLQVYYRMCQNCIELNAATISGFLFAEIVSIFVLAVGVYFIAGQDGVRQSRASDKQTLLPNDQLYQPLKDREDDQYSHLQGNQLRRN
Assay: cell-based or functional assay
For Emax in this document: unit not given here.

| CD3-NFAT Activity by CD3 mAb [% SP34] | Binder |
| --- | --- |
| > 50 | B1 |
| > 50 | B2 |
| ≤ 50 | B3 |
| ≤ 50 | B4 |
| ≤ 50 | B5 |
| ≤ 50 | B6 |
| ≤ 50 | B7 |
| > 50 | B8 |
| ≤ 50 | B9 |
| ≤ 50 | B10 |
| ≤ 50 | B11 |
| > 50 | B12 |
| > 50 | B13 |
| > 50 | B14 |
| > 50 | B15 |
| > 50 | B16 |
| > 50 | B17 |
| > 50 | B18 |
| > 50 | B19 |
| ≤ 50 | B20 |
| ≤ 50 | B21 |
| ≤ 50 | B22 |
| > 50 | B23 |
| > 50 | B24 |
| > 50 | B25 |

Molecular target: T2, human CD3 protein (human, UniProt P07766 23-126; P04234 22-105)
T2 construct: ELISA coating protein; also called Human CD3D & CD3E Heterodimer Protein
T2 sequence (P07766 23-126 limits assumed, chain 1 of 2): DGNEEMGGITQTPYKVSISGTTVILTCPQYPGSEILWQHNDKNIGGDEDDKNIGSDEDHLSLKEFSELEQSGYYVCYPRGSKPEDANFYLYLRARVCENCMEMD
T2 sequence (P04234 22-105 limits assumed, chain 2 of 2): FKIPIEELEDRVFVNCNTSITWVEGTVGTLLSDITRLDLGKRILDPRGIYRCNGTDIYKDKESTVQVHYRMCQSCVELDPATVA
Assay: ELISA, plate-coated CD3;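 also: binding to plate-immobilized human CD3 protein, bound antibody detected with peroxidase-labelled anti-human IgG and TMB, read as absorbance at 450 nm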

| EC50 [ng/mL] | Binder |
| --- | --- |
| 3.23 | B1 |
| 3.35 | B2 |
| 5.66 | B3 |
| 16.4 | B4 |
| 5.84 | B5 |
| 428 | B6 |
| 6.38 | B7 |
| 3.44 | B8 |
| 6.78 | B9 |
| 136 | B10 |
| 6.04 | B11 |
| 2.99 | B12 |
| 2.95 | B13 |
| 2.89 | B14 |
| 3.06 | B15 |
| 3.27 | B16 |
| 3.03 | B17 |
| 2.82 | B18 |
| 3.05 | B19 |
| 6.28 | B20 |
| 124 | B21 |
| 26.4 | B22 |
| 3.2 | B23 |
| 3.44 | B24 |
| 2.69 | B25 |

Molecular target: T1, human CD3 on cells (human PBMC; Jurkat …)
Assay: cell-based or functional assay
Remark: another data set of the same source

| % of SP34 [%] | Emax | Binder |
| --- | --- | --- |
| 78.5 | 4600 | B1 |
| 72.4 | 4160 | B2 |
| 19.1 | 1100 | B3 |
| 14.8 | 752 | B4 |
| 26.2 | 1330 | B5 |
| 14.2 | 720 | B6 |
| 23.2 | 1280 | B7 |
| 73.9 | 4080 | B8 |
| 26.9 | 1580 | B9 |
| 22.6 | 1140 | B10 |
| 24 | 1380 | B11 |
| 71.9 | 4210 | B12 |
| 70.5 | 4130 | B13 |
| 77.2 | 4260 | B14 |
| 74.9 | 4140 | B15 |
| 79.9 | 4050 | B16 |
| 75.2 | 4150 | B17 |
| 88.8 | 4900 | B18 |
| 81 | 4470 | B19 |
| 34.9 | 1770 | B20 |
| 18.4 | 1060 | B21 |
| 12.9 | 656 | B22 |
| 78.4 | 4500 | B23 |
| 71.9 | 3970 | B24 |
| 87.5 | 4830 | B25 |

Molecular target: T3, recombinant CD3D&E protein (human CD3-his tag) (human, UniProt P04234 22-105; P07766 23-126, limits assumed)
T3 construct: Analyte in Biacore; also called CD3D&E-His; CD3d&ε-His
T3 sequence (P04234 22-105 limits assumed, chain 1 of 2): as the sequence (P04234 22-105 limits assumed, chain 2 of 2) above
T3 sequence (P07766 23-126 limits assumed, chain 2 of 2): as the sequence (P07766 23-126 limits assumed, chain 1 of 2) above
Assay: SPR Biacore, Ab captured on Protein A;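 also: humanized antibodies on a Protein A chip, human CD3-his analyte flowed over in serial dilutions for 3 min, dissociation tracked 120–360 s on a Biacore T200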

| Kd [µM] | koff [s⁻¹] | kon [M⁻¹ s⁻¹] | Binder |
| --- | --- | --- | --- |
| 0.0194 | 0.00177 | 91300 | B1 |
| 0.0512 | 0.00286 | 55900 | B2 |
| 0.0793 | 0.0187 | 236000 | B3 |
| 0.0158 | 0.00648 | 409000 | B4 |
| 0.0702 | 0.0159 | 226000 | B5 |
| 0.0404 | 0.00441 | 109000 | B6 |
| 0.0296 | 0.0103 | 349000 | B7 |
| 0.0704 | 0.0568 | 806000 | B8 |
| 0.0452 | 0.0142 | 314000 | B9 |
| 0.0135 | 0.00547 | 406000 | B10 |
| 0.0805 | 0.015 | 187000 | B11 |
| 0.0211 | 0.00181 | 85800 | B12 |
| 0.049 | 0.0396 | 808000 | B13 |
| 0.0111 | 0.00106 | 95400 | B14 |
| 0.0517 | 0.053 | 1.02e+06 | B15 |
| 0.0614 | 0.00637 | 104000 | B16 |
| 0.0762 | 0.0151 | 198000 | B17 |
| 0.0125 | 0.00107 | 85400 | B18 |
| 0.0114 | 0.00106 | 93000 | B19 |
| 0.0551 | 0.0155 | 282000 | B20 |
| 0.0126 | 0.00354 | 280000 | B21 |
| 0.0158 | 0.00704 | 445000 | B22 |
| 0.0441 | 0.00306 | 69300 | B23 |
| 0.0619 | 0.111 | 1.8e+06 | B24 |
| 0.0135 | 0.00107 | 79400 | B25 |
